From US20230174629A1 come the findings set out here.

The target in assay [1] is MPER-Fluc-Bpe fusion protein (Bordetella pertussis (Fluc-Bpe); HIV-1 (gp41 MPER epitope)). Kind of assay: gel filtration chromatography, complex against fusion protein alone. For orientation: In gel filtration, larger molecules generally elute earlier.
Assay [2] addresses MPER-GlpF fusion protein (E. coli (GlpF); HIV-1 (gp41 MPER epitope)). The assay is described as follows: size exclusion chromatography, complex against GlpF alone.
Assay [3] addresses MPER-AdiC fusion protein (Salmonella enterica (AdiC); HIV-1 (gp41 MPER epitope)) (UniProt P60065).
The target is the same in assay [4]. The assay is described as follows: gel filtration chromatography, complex against AdiC alone.
In assay [5] the target is MPER-Fluc-Bpe fusion protein (Bordetella pertussis (Fluc-Bpe); HIV-1 (gp41 MPER epitope)). The assay is described as follows: negative stain EM 2-D class averages, 1 dimer:0.3 Fab molar ratio.

As to 10E8v4 Fab fragment, the shift in the retention time in assay [1] amounted to 2 mL. The elution volume shift stood at 1 mL in assay [2] and 0.5 mL in assay [4]. The same substance came in with a stoichiometry (Fab per AdiC dimer) (Fab per AdiC dimer) in assay [3] of 1.
As for VRC42 Fab fragment, the percent of total particles in the doubly-occupied class in assay [5] was determined as 2.5%.
